Laboratory results as given in the supplement of paper PMC10065799, “High-throughput profiling of sequence recognition by tyrosine kinases and SH2 domains using bacterial peptide display” (eLife, 2023).

Legend:
[1] = target: Hck (UniProt P08631); test: phosphorylation enrichment, bacterial display (enrichment ratio); higher = better substrate or ligand; peptides without Tyr show the background
[2] = system: Fer (mouse); test: as above
[3] = target: FGFR1 (UniProt P11362); test: as above
[4] = target: Jak2 (UniProt O60674); test: as above
Chain of Jak2 (O60674 whole entry, looked up): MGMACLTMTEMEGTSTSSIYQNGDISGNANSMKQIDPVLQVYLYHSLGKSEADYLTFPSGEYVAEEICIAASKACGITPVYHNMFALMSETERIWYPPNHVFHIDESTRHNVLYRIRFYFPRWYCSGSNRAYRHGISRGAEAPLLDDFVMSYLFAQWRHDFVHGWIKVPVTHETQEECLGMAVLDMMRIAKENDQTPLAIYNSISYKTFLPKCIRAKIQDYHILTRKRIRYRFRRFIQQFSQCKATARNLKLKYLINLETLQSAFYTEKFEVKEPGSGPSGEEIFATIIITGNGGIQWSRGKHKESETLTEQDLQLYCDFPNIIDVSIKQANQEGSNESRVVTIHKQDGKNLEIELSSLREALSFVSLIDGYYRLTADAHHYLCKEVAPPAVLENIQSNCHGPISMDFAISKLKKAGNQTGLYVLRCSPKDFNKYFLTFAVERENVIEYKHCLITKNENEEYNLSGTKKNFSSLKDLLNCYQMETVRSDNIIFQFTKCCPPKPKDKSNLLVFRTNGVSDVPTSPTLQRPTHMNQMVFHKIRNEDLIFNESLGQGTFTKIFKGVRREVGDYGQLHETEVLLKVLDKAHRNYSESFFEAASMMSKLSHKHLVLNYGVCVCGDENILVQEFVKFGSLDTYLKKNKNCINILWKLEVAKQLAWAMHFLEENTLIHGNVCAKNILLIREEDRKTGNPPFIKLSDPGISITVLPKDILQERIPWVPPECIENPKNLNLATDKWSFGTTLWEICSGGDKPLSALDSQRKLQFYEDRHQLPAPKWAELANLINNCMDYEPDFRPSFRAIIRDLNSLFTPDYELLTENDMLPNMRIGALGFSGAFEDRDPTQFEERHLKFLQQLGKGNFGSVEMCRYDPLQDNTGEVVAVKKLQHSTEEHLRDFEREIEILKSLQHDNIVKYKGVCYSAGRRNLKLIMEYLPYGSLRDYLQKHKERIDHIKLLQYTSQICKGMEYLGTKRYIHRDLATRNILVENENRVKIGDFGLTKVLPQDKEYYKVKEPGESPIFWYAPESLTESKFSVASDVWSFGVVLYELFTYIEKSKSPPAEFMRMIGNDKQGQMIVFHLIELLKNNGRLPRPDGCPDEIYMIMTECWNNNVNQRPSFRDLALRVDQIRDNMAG

[5] = system: AncSZ; test: as above
[6] = target: FGFR3 (UniProt P22607); test: as above
[7] = target: MERTK (UniProt Q12866); test: as above
Chain of MERTK (Q12866 whole entry, looked up): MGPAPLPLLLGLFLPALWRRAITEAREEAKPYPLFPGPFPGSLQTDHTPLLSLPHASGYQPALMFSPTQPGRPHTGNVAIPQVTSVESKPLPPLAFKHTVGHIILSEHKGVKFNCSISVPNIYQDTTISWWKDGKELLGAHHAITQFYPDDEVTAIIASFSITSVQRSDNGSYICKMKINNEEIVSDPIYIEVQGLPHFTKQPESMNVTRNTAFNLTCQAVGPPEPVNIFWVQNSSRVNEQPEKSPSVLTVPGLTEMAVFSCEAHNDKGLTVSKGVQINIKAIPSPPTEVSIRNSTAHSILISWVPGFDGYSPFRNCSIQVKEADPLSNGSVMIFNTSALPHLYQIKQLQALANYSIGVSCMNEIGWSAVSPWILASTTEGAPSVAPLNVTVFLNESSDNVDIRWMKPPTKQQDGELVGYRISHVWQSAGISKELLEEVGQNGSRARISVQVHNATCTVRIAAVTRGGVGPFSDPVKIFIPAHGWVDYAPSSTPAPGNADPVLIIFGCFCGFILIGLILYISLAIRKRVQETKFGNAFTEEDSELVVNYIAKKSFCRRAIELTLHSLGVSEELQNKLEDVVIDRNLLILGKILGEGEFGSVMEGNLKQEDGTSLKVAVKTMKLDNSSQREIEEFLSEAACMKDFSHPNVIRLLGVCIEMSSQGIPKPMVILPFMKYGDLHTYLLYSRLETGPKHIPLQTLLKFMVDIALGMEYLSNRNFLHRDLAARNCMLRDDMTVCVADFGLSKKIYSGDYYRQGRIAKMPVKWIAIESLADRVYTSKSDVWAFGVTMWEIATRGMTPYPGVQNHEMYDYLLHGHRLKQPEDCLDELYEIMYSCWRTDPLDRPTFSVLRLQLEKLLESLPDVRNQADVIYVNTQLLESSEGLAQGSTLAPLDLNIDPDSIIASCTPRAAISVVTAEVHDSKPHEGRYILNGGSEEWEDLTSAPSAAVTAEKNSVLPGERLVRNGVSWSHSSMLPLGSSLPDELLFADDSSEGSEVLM

[8] = system: c-Abl (mouse); test: as above
[9] = system: c-Src; test: as above
[10] = target: Fes (UniProt P07332); test: as above
[11] = target: EPHB1 (UniProt P54762); test: as above
[12] = target: Fyn (UniProt P06241); test: as above
[13] = target: EPHB2 (UniProt P29323); test: as above
Chain of EPHB2 (P29323 whole entry, looked up): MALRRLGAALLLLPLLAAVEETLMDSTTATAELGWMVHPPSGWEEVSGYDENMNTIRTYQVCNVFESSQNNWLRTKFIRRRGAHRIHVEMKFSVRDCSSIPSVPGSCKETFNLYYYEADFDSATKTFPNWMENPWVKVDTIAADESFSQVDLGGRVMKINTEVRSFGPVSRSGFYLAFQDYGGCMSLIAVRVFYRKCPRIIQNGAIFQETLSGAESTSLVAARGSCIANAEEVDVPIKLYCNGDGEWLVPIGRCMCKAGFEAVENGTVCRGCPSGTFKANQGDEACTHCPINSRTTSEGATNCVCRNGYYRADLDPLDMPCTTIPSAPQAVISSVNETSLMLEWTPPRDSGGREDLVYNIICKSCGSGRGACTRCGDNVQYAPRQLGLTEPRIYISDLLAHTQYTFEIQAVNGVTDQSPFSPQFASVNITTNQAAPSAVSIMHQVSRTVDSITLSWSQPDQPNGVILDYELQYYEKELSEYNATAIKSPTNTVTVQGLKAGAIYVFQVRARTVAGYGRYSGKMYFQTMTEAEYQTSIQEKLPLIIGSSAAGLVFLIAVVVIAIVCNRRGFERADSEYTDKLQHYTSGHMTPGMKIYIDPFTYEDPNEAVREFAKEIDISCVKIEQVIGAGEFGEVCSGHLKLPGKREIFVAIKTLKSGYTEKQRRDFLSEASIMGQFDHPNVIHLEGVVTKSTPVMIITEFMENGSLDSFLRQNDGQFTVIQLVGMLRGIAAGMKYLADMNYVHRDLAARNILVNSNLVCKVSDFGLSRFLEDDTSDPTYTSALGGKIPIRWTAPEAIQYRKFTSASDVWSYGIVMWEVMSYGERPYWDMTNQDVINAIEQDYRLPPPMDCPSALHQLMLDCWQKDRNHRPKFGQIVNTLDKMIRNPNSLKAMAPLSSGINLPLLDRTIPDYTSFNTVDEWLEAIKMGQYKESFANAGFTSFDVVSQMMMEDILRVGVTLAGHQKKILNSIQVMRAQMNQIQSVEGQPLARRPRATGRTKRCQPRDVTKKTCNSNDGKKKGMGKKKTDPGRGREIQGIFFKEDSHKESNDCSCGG

[14] = target: c-Src SH2; test: SH2 binding enrichment of the phosphorylated peptide, bacterial display (enrichment ratio); higher = better substrate or ligand; peptides without Tyr show the background
[15] = target: Grb2 SH2 (UniProt P62993); test: as above
Chain of Grb2 SH2 (P62993 whole entry, looked up): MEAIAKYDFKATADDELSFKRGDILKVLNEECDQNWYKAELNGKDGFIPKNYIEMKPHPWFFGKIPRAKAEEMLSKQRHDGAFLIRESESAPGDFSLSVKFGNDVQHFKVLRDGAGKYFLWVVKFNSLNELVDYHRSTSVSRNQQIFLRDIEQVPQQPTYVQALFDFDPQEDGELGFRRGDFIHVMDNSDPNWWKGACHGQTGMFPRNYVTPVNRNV

[16] = target: SHP2-C SH2; test: as above
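Wherever SH2 binding enrichment of the phosphorylated peptide, bacterial display is given: peptide library displayed on the E. coli surface as eCPX fusions, selected cells deep-sequenced, score is each peptide's frequency after selection divided by its frequency in the input.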
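Wherever phosphorylation enrichment, bacterial display is given: 11-residue human phosphosite peptides and single-mutation variants displayed on the E. coli surface, counted by deep sequencing, each peptide's frequency after selection divided by its frequency in the unselected input library; frequency after pTyr selection over input frequency; kinase dosed for 20-30% of maximal phosphorylation in three min.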

Chain of FGFR1 (P11362 whole entry, looked up): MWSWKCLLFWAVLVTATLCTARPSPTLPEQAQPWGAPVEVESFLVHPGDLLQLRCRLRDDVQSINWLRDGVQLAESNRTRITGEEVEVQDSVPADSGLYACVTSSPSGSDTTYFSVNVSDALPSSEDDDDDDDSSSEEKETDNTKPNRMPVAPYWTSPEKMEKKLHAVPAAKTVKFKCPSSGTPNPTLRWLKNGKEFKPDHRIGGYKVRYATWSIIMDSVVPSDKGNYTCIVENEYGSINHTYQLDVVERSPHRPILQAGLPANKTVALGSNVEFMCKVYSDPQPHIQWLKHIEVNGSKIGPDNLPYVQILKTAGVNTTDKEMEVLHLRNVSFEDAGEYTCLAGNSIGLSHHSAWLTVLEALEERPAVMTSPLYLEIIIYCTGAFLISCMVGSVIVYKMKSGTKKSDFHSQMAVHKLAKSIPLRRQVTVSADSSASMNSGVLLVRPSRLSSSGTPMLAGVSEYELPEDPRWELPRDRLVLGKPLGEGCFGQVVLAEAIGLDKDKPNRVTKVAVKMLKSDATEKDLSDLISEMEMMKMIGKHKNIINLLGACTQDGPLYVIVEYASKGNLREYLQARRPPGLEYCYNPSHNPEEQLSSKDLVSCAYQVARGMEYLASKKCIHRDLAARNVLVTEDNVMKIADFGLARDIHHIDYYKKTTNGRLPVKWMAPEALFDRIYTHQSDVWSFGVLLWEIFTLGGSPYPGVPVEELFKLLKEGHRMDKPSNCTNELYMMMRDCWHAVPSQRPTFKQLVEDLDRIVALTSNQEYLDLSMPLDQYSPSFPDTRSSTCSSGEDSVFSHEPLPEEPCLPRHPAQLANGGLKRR
Chain of Hck (P08631 whole entry, looked up): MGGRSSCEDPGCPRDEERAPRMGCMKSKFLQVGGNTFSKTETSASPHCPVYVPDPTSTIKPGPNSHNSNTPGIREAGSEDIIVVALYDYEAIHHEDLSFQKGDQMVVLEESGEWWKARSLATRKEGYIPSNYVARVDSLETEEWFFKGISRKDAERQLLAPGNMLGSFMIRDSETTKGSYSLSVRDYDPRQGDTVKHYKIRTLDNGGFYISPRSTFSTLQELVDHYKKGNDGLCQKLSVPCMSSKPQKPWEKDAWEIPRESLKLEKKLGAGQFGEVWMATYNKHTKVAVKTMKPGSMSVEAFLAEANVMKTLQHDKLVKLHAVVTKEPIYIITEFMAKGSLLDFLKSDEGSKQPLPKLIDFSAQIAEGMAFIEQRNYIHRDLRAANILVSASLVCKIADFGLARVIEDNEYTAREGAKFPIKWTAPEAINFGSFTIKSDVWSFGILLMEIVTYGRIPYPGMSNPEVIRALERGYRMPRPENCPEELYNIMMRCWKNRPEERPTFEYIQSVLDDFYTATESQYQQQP

Sequence | phosphorylation enrichment [1] | phosphorylation enrichment [2] | phosphorylation enrichment [3] | phosphorylation enrichment [4] | phosphorylation enrichment [5] | phosphorylation enrichment [6] | phosphorylation enrichment [7] | phosphorylation enrichment [8] | phosphorylation enrichment [9] | phosphorylation enrichment [10] | phosphorylation enrichment [11] | phosphorylation enrichment [12] | phosphorylation enrichment [13] | SH2 binding enrichment [14] | SH2 binding enrichment [15] | SH2 binding enrichment [16]
TSQSQYFSFRE [CCDC170_Y323] | 1.72 | 0.461 | 1.62 | 1.29 | 0.745 | 1.49 | 0.818 | 0.604 | 4.89 | 0.891 | 0.315 | 3.07 | 0.368 | 0.796 | 1.15 | 0.999
TTICKYSTPME [GUCY2C_Y839] | 0.413 | 0.351 | 0.608 | 0.756 | 0.798 | 0.567 | 0.446 | 0.63 | 0.474 | 0.801 | 0.395 | 0.35 | 0.488 | 1.05 | 0.924 | 0.967
TTKGAYSLSIR [YES1_Y194] | 0.445 | 0.383 | 0.49 | 0.614 | 0.656 | 0.395 | 0.548 | 0.669 | 0.567 | 0.681 | 0.369 | 0.406 | 0.414 | 0.792 | 1.36 | 0.434
TTPGPYRSIFF [MPG_Y71_YF] | 0.521 | 0.368 | 0.551 | 0.626 | 1.07 | 1.07 | 0.663 | 0.706 | 0.728 | 0.923 | 0.493 | 0.514 | 0.546 | 0.688 | 0.997 | 3.79
TVMGLYQKSSL [MYH7_Y609_V606M] | 0.573 | 0.527 | 0.412 | 0.707 | 0.824 | 0.618 | 0.601 | 0.525 | 0.563 | 0.797 | 0.657 | 0.404 | 0.516 | 0.377 | 0.84 | 1.13
TYAVSYLPDMS [FLNC_Y1602_T1599A] | 0.732 | 0.575 | 0.428 | 0.924 | 0.867 | 0.576 | 1.6 | 0.963 | 0.811 | 0.763 | 0.559 | 0.589 | 0.785 | 0.674 | 0.809 | 0.95
VAFLYYKSIGP [ADGRL4_Y302_V300L] | 0.625 | 0.589 | 0.531 | 1.44 | 1.21 | 1.09 | 0.389 | 1.43 | 0.392 | 1.54 | 0.78 | 0.45 | 0.776 | 0.341 | 0.771 | 0.633
VASMFYTLVIP [OR8K3_Y277_I275M] | 0.667 | 3.5 | 2.79 | 1.51 | 1.96 | 2.37 | 5.7 | 0.691 | 1.38 | 1.14 | 1.13 | 0.661 | 0.82 | 0.783 | 1.22 | 1.13
VCDALYPPGPP | 0.288 | 0.489 | 0.421 | 0.73 | 0.779 | 0.467 | 0.282 | 0.766 | 0.443 | 0.794 | 0.465 | 0.306 | 0.329 | 0.62 | 0.863 | 0.675
VDDEIYFFRKP [PBRM1_Y1289_YF] | 5.24 | 0.652 | 1.32 | 1.25 | 2.12 | 1.32 | 0.796 | 1.35 | 5.57 | 1.4 | 0.693 | 6.18 | 0.635 | 0.466 | 0.75 | 0.661
VDFQPYRKHKF [TEX37_Y28_YF] | 0.451 | 0.463 | 0.401 | 0.479 | 0.553 | 0.587 | 0.472 | 0.595 | 0.377 | 0.639 | 0.403 | 0.45 | 0.32 | 0.844 | 0.991 | 0.87
VDSNPYSHLMA [UBA5_Y53_R55H] | 0.891 | 1.25 | 0.418 | 0.577 | 0.669 | 0.489 | 0.518 | 0.504 | 0.862 | 0.631 | 0.48 | 0.639 | 0.481 | 1.59 | 0.813 | 1.15
VDTGVYAVPPP [BCAR1_Y410_S407T] | 7.67 | 5.77 | 1.28 | 0.827 | 2.39 | 1.14 | 9.22 | 20.7 | 4.89 | 0.799 | 8.36 | 8.6 | 20.2 | 0.556 | 0.775 | 0.602
VFGVSYDEFRF [CFTR_Y512_I507V_YF] | 1.25 | 1.98 | 0.452 | 1.4 | 1.09 | 0.736 | 0.799 | 0.823 | 2.83 | 1.13 | 0.578 | 1.13 | 0.577 | 0.859 | 0.984 | 1.09
VGQRPYRPLPE [REEP3_Y170_Q171R] | 0.4 | 0.482 | 0.482 | 0.67 | 0.584 | 0.519 | 0.473 | 0.683 | 0.471 | 0.637 | 0.391 | 0.492 | 0.557 | 0.59 | 0.957 | 0.68
VGRVGYVSGWG [HP_Y280] | 0.415 | 0.395 | 0.427 | 0.821 | 0.781 | 0.56 | 0.406 | 0.807 | 0.507 | 0.792 | 0.4 | 0.456 | 0.514 | 0.606 | 0.809 | 0.854
VHLYAYDWISI [BEST1_Y227_G222V] | 1.83 | 13 | 5.73 | 1.33 | 2.32 | 4.71 | 8.36 | 0.865 | 1.44 | 3.05 | 7.2 | 1.18 | 5.88 | 1.18 | 1.48 | 1.42

Sequence | phosphorylation enrichment [1] | phosphorylation enrichment [2] | phosphorylation enrichment [3] | phosphorylation enrichment [4] | phosphorylation enrichment [5] | phosphorylation enrichment [6] | phosphorylation enrichment [7] | phosphorylation enrichment [8] | phosphorylation enrichment [9] | phosphorylation enrichment [10] | phosphorylation enrichment [11] | phosphorylation enrichment [12] | phosphorylation enrichment [13] | SH2 binding enrichment [14] | SH2 binding enrichment [15] | SH2 binding enrichment [16]
VHSGTYQVTVR [MYBPC3_Y1043] | 0.738 | 0.435 | 0.404 | 0.48 | 0.593 | 0.391 | 0.409 | 0.442 | 0.561 | 0.586 | 0.521 | 0.448 | 0.489 | 0.567 | 0.725 | 0.64
VICRRYLVMQR [IL3RA_Y328] | 0.487 | 0.46 | 0.786 | 0.894 | 1.24 | 0.74 | 0.531 | 0.618 | 0.342 | 1.05 | 0.456 | 0.595 | 0.69 | 0.354 | 0.816 | 0.416
VKALKYKSMKI [ITGA11_Y1098_L1093V] | 0.31 | 0.327 | 0.369 | 0.434 | 0.396 | 0.405 | 0.276 | 0.472 | 0.306 | 0.507 | 0.32 | 0.329 | 0.331 | 1.14 | 1.29 | 1.23
VKPENDRRLDI [VHL_Y175_Y175D] | 0.43 | 0.43 | 0.37 | 0.692 | 0.675 | 0.539 | 0.531 | 0.535 | 0.356 | 0.789 | 0.44 | 0.43 | 0.438 | 0.584 | 1.12 | 0.718
VMAVAYRLAEQ [HK1_Y461_T457M] | 0.445 | 0.491 | 0.463 | 1.04 | 0.972 | 0.676 | 0.46 | 0.708 | 0.463 | 1.06 | 0.619 | 0.431 | 0.496 | 0.685 | 1.26 | 1.03
VQQVIYATRAL [MYH7_Y422_G425R] | 8.57 | 0.57 | 0.468 | 0.598 | 0.663 | 0.534 | 0.711 | 14.1 | 7.24 | 0.684 | 0.434 | 9.04 | 0.505 | 0.518 | 0.652 | 1.06
VRALTYCDLHK [KCNH2_Y827] | 0.582 | 0.531 | 0.452 | 0.605 | 0.74 | 0.591 | 0.453 | 0.656 | 0.392 | 0.874 | 0.603 | 0.499 | 0.704 | 0.715 | 0.885 | 0.968
VRFMAYTDETF [F8_Y450] | 0.487 | 0.494 | 0.608 | 1.2 | 1.04 | 0.746 | 0.456 | 0.789 | 0.433 | 1.19 | 0.657 | 0.516 | 0.612 | 0.498 | 0.734 | 0.719
VRFMEYETQVK [TARDBP_Y155_T153M] | 0.459 | 0.418 | 0.394 | 0.979 | 0.943 | 0.694 | 0.373 | 0.73 | 0.481 | 0.981 | 1.25 | 0.384 | 1.14 | 0.52 | 0.888 | 0.958
VRTGIYHGREP [PIK3CA_Y361_G364R] | 0.638 | 0.374 | 0.324 | 0.491 | 0.478 | 0.46 | 0.291 | 0.581 | 0.503 | 0.599 | 0.302 | 0.357 | 0.38 | 0.568 | 1.06 | 0.766
VSFDEYRFRSF [CFTR_Y515_V520F_YF] | 0.484 | 0.502 | 0.514 | 1.11 | 0.903 | 0.739 | 0.45 | 0.982 | 0.561 | 1.12 | 0.612 | 0.569 | 0.568 | 0.393 | 0.834 | 0.715
VSLLPYFPAIM [IPO4_Y518_A513V] | 0.541 | 0.508 | 0.719 | 2.06 | 1.12 | 0.873 | 0.369 | 0.754 | 0.443 | 1.32 | 0.646 | 0.541 | 0.657 | 0.602 | 0.902 | 0.848
VTAALYGRLFE [BTD_Y536_YF] | 5.74 | 0.436 | 0.439 | 0.633 | 0.748 | 0.527 | 1.08 | 0.626 | 4.97 | 0.734 | 0.535 | 6.32 | 0.656 | 0.627 | 1.16 | 1.16
VTRANYFIRDE [GNAS_Y339_K338N] | 0.388 | 0.45 | 0.412 | 0.845 | 0.705 | 0.621 | 0.45 | 0.712 | 0.494 | 0.736 | 0.541 | 0.474 | 0.449 | 0.434 | 0.984 | 0.8
VVGMLYVGGLP [LAMA2_Y2886] | 0.454 | 0.486 | 0.491 | 1.08 | 0.999 | 0.683 | 0.449 | 0.742 | 0.388 | 1.2 | 0.727 | 0.455 | 0.644 | 0.461 | 0.78 | 0.785
VVPGSYDRLRV [IFT172_Y260_L257P] | 0.486 | 0.332 | 0.394 | 0.462 | 0.496 | 0.439 | 0.469 | 0.406 | 0.399 | 0.603 | 0.353 | 0.359 | 1.13 | 0.818 | 0.772 | 0.912
